Source: US20220056084A1 (CONSEJO SUPERIOR DE INVESTIGACIONES CIENTIFICAS CSIC, published 2022)

Molecular target: the molecule itself
Assay: gel filtration and sedimentation velocity (self-association)

B1: H10-LOV543m3-WH1 (other)
chain: MGSSHHHHHHHHHHSSGLVPRGSLATTLERIEKNFVITDPRLPDNPIIFASDSFLQLTEYSREEILGRNCRFLQGPETDRATVRKIRDAIDNQTEVTVQLINYTKSGKKFWNLFHLQPMRDQKGDVQYFIGVQLDGTEHVRDAAEREAVMEAKKTAENIDEAAKLIESSHTLTLNEKRLVLCAASLIDSRKPLPKDGYLTIRADTFAEVFGIDVKHAYAALDDAATKLFNRDIRRYVKGKVVERMRWVFHVKYREGQGCVELGFSPTIIPHLTMLHKEFTSYQLK
notes: Chimera of Avena sativa LOV2 (G528A, L531E, I532A) and wild-type RepA-WH1; carries the FMN chromophore; Dimer in solution; also called LOV2m3-WH1; LOV543-WH1m3; not shown: N-terminal His10 tag peptide
B1: binds.
